Measurements reported in publication PMC3098278.

Legend:
Test in all cases: filter binding
[1] = system: 80S ribosome, wild-type L11 (Saccharomyces cerevisiae? (yeast)); conditions: aminoacylated (N-acetyl-Phe); Nitrocellulose filter binding, 30 C, 35 min (A-site) or 40 min (P-site), poly(U)-primed ribosomes; buffer, salt and pH not given; errors are SD
[2] = system: 80S ribosome, L11 H109E (Saccharomyces cerevisiae? (yeast)); conditions: aminoacylated (N-acetyl-Phe); Nitrocellulose filter binding, 30 C, 35 min (A-site) or 40 min (P-site), poly(U)-primed ribosomes; buffer, salt and pH not given; errors are SD
[3] = system: 80S ribosome, L11 H109F (Saccharomyces cerevisiae? (yeast)); conditions: aminoacylated (N-acetyl-Phe); Nitrocellulose filter binding, 30 C, 35 min (A-site) or 40 min (P-site), poly(U)-primed ribosomes; buffer, salt and pH not given; errors are SD
[4] = system: 80S ribosome, L11 114-116R (Saccharomyces cerevisiae? (yeast)); conditions: aminoacylated (N-acetyl-Phe); Nitrocellulose filter binding, 30 C, 35 min (A-site) or 40 min (P-site), poly(U)-primed ribosomes; buffer, salt and pH not given; errors are SD
[5] = system: 80S ribosome, L11 87-90R (Saccharomyces cerevisiae? (yeast)); conditions: aminoacylated (N-acetyl-Phe); Nitrocellulose filter binding, 30 C, 35 min (A-site) or 40 min (P-site), poly(U)-primed ribosomes; buffer, salt and pH not given; errors are SD
[6] = system: 80S ribosome, wild-type L11 ((yeast)); conditions: poly(U), tRNAPhe in P-site, soluble factors; aminoacylated (Phe); Nitrocellulose filter binding, 30 C, 35 min (A-site) or 40 min (P-site), poly(U)-primed ribosomes; buffer, salt and pH not given; errors are SD
[7] = system: 80S ribosome, L11 H109E ((yeast)); conditions: poly(U), tRNAPhe in P-site, soluble factors; aminoacylated (Phe); Nitrocellulose filter binding, 30 C, 35 min (A-site) or 40 min (P-site), poly(U)-primed ribosomes; buffer, salt and pH not given; errors are SD

Row | Substance | Kd [1] [nM] | Kd [2] [nM] | Kd [3] [nM] | Kd [4] [nM] | Kd [5] [nM] | Kd [6] [nM] | Kd [7] [nM]
1 | Ac-Phe-tRNAPhe (P-site) | 72.3 | 42.8 | 99.2 | 41 | 122 | – | –
2 | Phe-tRNAPhe (A-site) | – | – | – | – | – | 97.6 | 176
